Laboratory results from patent publication EP4692367A1.

What was measured:
[1] = molecular target: LgBiT-p62 (Homo sapiens (Human)) (UniProt Q13501); assay: NanoBiT split-luciferase complementation in HeLa cells co-transfected with pLgBiT-p62 and pSmBiT-DDX5; 10 uM FBnG for 24 h; luminescence 10 min after start of measurement
[2] = molecular target: LgBiT-p62 (Homo sapiens (Human)) (UniProt Q13501); assay: NanoBiT split-luciferase complementation in HeLa cells co-transfected with pLgBiT-p62 and pSmBiT-DDX5; 10 uM AUTAC2-2G for 12 h; luminescence 10 min after start of measurement
[3] = molecular target: LgBiT-p62 (Homo sapiens (Human)) (UniProt Q13501); assay: NanoBiT split-luciferase complementation in HeLa cells co-transfected with pLgBiT-p62 and pSmBiT-DDX5; 10 uM 8-nitro-cGMP for 24 h; luminescence 10 min after start of measurement
[4] = molecular target: LgBiT-p62 (Homo sapiens (Human)) (UniProt Q13501); assay: NanoBiT split-luciferase complementation in HeLa cells co-transfected with pLgBiT-p62 and pSmBiT-DDX5; each of compounds 5 to 33 at 10 uM for 24 h; luminescence 10 min after start of measurement
[5] = molecular target: LgBiT-p62 (Homo sapiens (Human)) (UniProt Q13501); assay: NanoBiT split-luciferase complementation in HeLa cells co-transfected with pLgBiT-p62 and pSmBiT-DDX5; 10 uM AUTAC4-2G for 12 h; luminescence 10 min after start of measurement

Measured: emission intensity relative to cells treated with DMSO (times (fold over DMSO-treated cells))

Sequence of SmBiT-DDX5 (P17844 whole entry): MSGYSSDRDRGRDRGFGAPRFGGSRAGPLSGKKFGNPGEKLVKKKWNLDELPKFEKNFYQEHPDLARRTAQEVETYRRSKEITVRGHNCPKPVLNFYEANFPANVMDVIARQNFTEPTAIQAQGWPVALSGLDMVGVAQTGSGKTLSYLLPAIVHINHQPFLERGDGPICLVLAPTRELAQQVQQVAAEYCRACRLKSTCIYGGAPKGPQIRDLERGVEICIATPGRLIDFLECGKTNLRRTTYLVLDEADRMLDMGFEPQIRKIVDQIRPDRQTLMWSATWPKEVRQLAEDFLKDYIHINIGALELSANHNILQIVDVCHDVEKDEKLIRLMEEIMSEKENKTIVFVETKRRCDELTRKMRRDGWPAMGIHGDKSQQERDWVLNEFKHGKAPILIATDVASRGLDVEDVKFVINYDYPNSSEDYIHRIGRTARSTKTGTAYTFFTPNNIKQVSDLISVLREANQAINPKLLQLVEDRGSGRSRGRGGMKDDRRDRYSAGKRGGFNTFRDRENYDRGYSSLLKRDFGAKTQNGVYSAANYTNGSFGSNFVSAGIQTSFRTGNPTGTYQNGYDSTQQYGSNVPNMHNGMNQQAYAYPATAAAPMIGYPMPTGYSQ

SmBiT-DDX5 (from UniProt P17844 1-614) (enzyme)
> 1000: all assays above
